Measurements from IntAct's records for PubMed 22291198.

B1: Protein GLUTAMINE DUMPER 1 (Arabidopsis thaliana (Mouse-ear cress)), O81775 (parent)
chain: MRPLSVQSKFEDVATSTSVNHHGVTPQSPWHSPVPYLFGGLAAMLGLIAFALLILACSYWRLSSSGEEDGQNVDEEKESRSGDKAANGAYEEKFLVIMAGEDLPRYLATPAMKKCTCGGHEGKMVISQEESVAKEEEKMREGEEEKVKDTGETTTTSH
partner: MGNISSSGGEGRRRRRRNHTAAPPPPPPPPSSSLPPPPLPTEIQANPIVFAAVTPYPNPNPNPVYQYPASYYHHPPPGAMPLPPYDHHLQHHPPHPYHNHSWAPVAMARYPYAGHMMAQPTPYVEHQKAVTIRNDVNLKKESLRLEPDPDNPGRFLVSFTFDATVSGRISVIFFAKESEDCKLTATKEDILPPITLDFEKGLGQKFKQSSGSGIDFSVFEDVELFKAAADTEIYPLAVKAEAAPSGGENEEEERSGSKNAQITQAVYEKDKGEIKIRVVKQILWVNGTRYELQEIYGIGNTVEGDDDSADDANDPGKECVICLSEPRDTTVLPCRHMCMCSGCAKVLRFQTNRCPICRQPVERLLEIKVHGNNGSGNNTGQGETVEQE
B2: Probable E3 ubiquitin-protein ligase LOG2 (Arabidopsis thaliana (Mouse-ear cress)), Q9S752 (parent)
chain: B1 partner
partner: B1 chain
B3: Protein GLUTAMINE DUMPER 1 (Arabidopsis thaliana (Mouse-ear cress)), O81775 (parent)
chain: B1 chain
partner: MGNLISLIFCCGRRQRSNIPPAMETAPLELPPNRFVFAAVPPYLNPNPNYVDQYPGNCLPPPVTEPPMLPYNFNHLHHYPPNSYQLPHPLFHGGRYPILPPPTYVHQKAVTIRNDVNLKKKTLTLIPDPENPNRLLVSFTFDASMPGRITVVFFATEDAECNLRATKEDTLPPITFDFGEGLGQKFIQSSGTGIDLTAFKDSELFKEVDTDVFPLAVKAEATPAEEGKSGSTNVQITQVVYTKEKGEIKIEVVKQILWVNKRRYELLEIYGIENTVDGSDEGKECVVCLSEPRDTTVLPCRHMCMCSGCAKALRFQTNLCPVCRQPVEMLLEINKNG

Variants of: B1
Conditions: with lofg2_arath LOG2, Q9S752

Row | effect of a mutation on the interaction | Variant
1 | disrupting interaction | G100R

Variants of: B2
Conditions: with gdu1_arath GDU1, O81775

Row | effect of a mutation on the interaction | Variant
2 | decreasing interaction | G2A;C354A;C357A

Variants of: B3
Conditions: with lul1_arath LUL1, Q9LYW5

Row | effect of a mutation on the interaction | Variant
3 | disrupting interaction | G100R
